Test results from US20110046075A1 (published 2011).

Tests used:
[1] = molecular target: T1, Native complement component C3, purified from human plasma (human, UniProt P01024 23-1663, intact thioester (native form)); experiment: cell-based or functional assay
[2] = molecular target: T2, Fibrinogen (Fg) from human serum (human, UniProt P02671 20-644; P02675 31-491; P02679 27-437); experiment: pull-down from human serum on derivatized sepharose, SDS-PAGE and LC-MS/MS
T2 construct: The three-chain make-up is from general knowledge; also called Fg species
T2 sequence 1: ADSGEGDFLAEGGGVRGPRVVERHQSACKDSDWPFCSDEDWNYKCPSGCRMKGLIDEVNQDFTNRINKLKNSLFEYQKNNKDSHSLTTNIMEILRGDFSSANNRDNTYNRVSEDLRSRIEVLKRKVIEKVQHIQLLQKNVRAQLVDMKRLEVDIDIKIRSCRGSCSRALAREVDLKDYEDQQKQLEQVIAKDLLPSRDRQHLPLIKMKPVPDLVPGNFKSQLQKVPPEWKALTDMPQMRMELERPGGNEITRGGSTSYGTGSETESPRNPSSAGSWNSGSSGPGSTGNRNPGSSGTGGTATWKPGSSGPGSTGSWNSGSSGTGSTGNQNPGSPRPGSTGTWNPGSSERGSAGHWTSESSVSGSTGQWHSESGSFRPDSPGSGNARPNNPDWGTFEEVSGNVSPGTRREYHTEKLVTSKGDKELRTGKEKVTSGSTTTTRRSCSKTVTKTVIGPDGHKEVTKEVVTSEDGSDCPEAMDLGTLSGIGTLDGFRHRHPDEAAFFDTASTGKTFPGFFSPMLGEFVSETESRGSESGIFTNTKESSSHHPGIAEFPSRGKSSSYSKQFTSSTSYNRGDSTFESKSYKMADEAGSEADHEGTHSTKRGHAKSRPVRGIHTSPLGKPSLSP
T2 sequence 2: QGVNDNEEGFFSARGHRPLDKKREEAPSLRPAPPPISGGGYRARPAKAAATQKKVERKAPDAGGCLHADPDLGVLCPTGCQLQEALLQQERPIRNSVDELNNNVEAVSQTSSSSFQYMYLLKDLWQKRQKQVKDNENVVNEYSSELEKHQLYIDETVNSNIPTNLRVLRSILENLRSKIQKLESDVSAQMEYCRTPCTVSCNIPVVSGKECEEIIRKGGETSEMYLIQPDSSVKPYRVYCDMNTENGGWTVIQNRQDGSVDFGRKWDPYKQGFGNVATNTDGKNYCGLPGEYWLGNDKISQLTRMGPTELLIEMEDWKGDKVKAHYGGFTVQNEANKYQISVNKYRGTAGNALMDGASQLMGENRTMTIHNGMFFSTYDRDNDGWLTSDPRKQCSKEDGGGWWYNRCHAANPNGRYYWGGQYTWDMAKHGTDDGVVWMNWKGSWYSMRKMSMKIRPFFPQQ
T2 sequence 3: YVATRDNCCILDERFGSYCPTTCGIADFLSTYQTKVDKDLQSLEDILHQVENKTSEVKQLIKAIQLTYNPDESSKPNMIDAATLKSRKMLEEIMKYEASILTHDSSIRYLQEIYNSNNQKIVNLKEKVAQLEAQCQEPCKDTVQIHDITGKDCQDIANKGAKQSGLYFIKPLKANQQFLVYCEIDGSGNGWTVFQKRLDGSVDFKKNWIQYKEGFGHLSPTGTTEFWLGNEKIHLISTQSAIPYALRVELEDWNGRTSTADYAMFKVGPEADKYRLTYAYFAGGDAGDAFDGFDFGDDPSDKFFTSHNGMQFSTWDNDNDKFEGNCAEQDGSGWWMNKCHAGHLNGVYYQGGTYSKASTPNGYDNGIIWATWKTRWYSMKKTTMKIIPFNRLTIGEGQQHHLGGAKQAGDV

[3] = molecular target: T1, Native complement component C3, …; experiment: SPR (Biacore 2000), Efb-C immobilized, native C3 as analyte, surface heterogeneity model, primary site (~90% of the total binding)
Hydrolyzed C3 (C3(H2O)) [4] = molecular target: T3, Hydrolyzed C3 (C3(H2O)) (human, UniProt P01024 23-1663, thioester hydrolyzed); experiment: SPR (Biacore 2000), Efb-C immobilized, C3(H2O) as analyte, 1:1 Langmuir model; Kd=koff/kon
T3 construct: mature; Prepared according to established protocols
T3 sequence (P01024 23-1663): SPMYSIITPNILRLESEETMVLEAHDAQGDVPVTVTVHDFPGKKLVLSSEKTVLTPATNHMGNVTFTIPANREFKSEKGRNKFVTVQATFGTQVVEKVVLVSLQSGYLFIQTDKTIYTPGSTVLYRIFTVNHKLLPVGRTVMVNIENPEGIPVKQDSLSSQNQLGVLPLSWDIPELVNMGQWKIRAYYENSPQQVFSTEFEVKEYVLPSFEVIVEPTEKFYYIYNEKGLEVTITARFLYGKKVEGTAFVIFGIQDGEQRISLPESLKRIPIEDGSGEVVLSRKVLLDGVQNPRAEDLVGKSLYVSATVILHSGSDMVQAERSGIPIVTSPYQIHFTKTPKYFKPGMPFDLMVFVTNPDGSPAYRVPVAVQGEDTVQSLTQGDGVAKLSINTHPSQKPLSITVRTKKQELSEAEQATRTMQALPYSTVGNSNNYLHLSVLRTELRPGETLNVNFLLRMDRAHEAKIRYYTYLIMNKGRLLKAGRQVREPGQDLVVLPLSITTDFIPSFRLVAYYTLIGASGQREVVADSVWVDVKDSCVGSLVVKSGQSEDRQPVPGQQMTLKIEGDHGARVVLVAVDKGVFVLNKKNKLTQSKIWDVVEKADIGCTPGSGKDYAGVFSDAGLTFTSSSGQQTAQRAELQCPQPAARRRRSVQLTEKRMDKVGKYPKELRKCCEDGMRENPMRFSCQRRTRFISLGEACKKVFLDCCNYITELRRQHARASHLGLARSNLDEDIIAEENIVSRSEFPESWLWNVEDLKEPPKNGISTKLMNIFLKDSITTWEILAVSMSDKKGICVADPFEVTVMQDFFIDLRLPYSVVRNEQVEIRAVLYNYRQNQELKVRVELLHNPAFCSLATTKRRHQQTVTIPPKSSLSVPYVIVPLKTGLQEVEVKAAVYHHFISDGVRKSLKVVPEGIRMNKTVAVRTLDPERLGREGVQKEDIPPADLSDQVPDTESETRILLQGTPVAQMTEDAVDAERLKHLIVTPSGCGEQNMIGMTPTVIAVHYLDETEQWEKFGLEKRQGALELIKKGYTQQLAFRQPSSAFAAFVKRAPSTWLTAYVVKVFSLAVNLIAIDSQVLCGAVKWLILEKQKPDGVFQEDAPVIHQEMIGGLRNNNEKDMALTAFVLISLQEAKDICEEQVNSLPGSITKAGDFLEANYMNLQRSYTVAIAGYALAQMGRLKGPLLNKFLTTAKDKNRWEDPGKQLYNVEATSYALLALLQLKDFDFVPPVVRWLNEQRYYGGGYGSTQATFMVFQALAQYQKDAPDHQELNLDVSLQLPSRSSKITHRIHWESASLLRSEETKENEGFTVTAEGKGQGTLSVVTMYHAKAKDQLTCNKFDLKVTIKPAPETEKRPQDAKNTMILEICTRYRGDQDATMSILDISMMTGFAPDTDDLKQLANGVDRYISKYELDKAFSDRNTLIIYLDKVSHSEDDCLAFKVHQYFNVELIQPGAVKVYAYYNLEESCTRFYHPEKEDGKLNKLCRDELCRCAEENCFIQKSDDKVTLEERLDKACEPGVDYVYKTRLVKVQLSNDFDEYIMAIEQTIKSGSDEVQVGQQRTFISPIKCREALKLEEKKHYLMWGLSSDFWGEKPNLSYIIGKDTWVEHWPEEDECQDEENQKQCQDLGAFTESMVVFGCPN

[5] = molecular target: T4, Recombinant C3dg (E. coli, pET30 vector with S-tag) (human, UniProt P01024 955-1303); experiment: SPR (Biacore 2000), Efb-C immobilized, C3dg as analyte, 1:1 Langmuir model; Kd=koff/kon
T4 construct: domain: C3dg; not shown: S-tag from the pET30 vector
T4 sequence (P01024 955-1303): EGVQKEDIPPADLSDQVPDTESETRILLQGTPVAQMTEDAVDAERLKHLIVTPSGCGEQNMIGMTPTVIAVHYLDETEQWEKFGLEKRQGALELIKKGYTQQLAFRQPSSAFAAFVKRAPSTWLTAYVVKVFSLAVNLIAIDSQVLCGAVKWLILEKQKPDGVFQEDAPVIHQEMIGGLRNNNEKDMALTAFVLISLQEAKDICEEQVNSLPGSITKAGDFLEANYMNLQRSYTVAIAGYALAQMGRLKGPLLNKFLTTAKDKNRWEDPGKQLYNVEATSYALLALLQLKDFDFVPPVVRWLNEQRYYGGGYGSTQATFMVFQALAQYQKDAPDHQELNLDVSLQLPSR

[6] = molecular target: T4, Recombinant C3dg (E. coli, pET30 vector …); experiment: SPR (Biacore 2000), Efb-C immobilized, C3dg as analyte, 1:1 Langmuir model
Protocol: (§1) Surface Plasmon Resonance of Efb Binding to Components of the Complement System. All SPR experiments were performed on a Biacore X (ranking) or Biacore 2000 (kinetic profiling) biosensor at 25° C. using 10 mM PBS-T (10 mM sodium phosphate, pH 7.4, 150 mM NaCl, 0.005% Tween-20) as running buffer. […] A separate flow cell was only activated and deactivated, and served as reference surface. 200 nM solutions of the C3 fragments were injected for 3 min at a flow rate of 20 μl/min with a dissociation phase of 3 min. The Efb-C surface was regenerated with two consecutive 30 s pulses of 0.1% SDS and re-equilibrated in running buffer for 10 min. For the kinetic SPR studies, Efb-C was immobilized at lower density (200 RU) and the flow rate was kept at 30 μl/ml in order to avoid mass transport effects. C3 fragments were screened as threefold dilution series (67-0.09 nM; 200-0.09 nM for C3b) in running buffer with injection and dissociation phases of 5 and 10 min, respectively. In order to ensure full reconstitution of the surface after regeneration, the equilibration phase was increased to 30 min. Three buffer blanks were included in each analysis and their average signals were subtracted from the processed sample responses (double referencing). […] The equilibrium dissociation constant (Kd) was calculated from the kinetic parameters as Kd=koff/kₒₙ. […]

Hydrolyzed C3 (C3(H2O)) [7] = molecular target: T3, Hydrolyzed C3 (C3(H2O)); experiment: SPR (Biacore 2000), Efb-C immobilized, C3(H2O) as analyte, 1:1 Langmuir model
Protocol: as §1

C3b [8] = molecular target: T5, C3b (human, UniProt P01024 23-667; P01024 749-1663, limits assumed); experiment: SPR (Biacore 2000), Efb-C immobilized, C3b as analyte, 1:1 Langmuir model; Kd=koff/kon
T5 construct: domain: C3b; Prepared according to established protocols
T5 sequence (P01024 23-667 limits assumed, chain 1 of 2): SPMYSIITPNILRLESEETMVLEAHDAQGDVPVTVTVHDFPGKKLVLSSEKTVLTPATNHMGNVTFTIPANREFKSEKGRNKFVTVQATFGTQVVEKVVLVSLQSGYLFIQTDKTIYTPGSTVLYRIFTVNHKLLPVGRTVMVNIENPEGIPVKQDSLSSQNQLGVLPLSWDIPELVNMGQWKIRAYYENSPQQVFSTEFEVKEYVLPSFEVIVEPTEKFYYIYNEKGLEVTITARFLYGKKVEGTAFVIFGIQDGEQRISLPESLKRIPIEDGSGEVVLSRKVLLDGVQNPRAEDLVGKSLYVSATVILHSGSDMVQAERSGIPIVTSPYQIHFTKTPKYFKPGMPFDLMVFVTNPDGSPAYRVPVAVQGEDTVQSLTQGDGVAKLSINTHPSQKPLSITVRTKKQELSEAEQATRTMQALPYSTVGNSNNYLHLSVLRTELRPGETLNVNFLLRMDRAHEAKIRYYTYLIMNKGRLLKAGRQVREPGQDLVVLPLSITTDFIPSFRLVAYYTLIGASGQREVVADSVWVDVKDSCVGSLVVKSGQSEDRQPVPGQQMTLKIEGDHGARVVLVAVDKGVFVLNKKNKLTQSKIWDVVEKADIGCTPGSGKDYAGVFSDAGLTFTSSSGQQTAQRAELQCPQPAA
T5 sequence (P01024 749-1663 limits assumed, chain 2 of 2): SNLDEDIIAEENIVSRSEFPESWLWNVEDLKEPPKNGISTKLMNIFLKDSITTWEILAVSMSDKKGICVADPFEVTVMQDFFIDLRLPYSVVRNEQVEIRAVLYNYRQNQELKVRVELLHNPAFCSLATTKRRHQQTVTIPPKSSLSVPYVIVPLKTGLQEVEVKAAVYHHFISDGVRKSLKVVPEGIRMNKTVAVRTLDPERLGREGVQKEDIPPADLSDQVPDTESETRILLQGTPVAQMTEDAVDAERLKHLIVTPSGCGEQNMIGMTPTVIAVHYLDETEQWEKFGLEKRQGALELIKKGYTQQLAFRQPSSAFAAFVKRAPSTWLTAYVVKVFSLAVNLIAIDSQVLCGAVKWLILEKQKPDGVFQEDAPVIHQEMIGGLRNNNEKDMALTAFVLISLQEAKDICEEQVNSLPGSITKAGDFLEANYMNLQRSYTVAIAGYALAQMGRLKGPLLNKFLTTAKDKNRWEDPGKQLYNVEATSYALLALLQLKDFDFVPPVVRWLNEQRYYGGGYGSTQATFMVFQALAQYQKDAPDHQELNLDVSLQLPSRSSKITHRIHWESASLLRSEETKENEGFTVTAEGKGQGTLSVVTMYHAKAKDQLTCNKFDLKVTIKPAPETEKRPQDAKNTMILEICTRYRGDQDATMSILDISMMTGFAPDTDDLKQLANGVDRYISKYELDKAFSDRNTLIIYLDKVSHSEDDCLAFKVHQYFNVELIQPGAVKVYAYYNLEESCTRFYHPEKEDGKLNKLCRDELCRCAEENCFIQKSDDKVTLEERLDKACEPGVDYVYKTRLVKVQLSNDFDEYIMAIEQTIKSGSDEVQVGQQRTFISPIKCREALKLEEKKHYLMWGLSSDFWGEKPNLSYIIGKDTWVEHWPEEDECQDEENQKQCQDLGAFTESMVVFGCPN

C3c = molecular target: T6, C3c (human, UniProt P01024 23-667; P01024 749-954; P01024 1321-1663); experiment: SPR, Efb-C immobilized, C3c injected, response divided by MW
T6 construct: domain: C3c; Prepared according to established protocols; also called C3c fragment
T6 sequence (P01024 23-667 limits assumed, chain 1 of 3): as the sequence (P01024 23-667 limits assumed, chain 1 of 2) above
T6 sequence (P01024 749-954 limits assumed, chain 2 of 3): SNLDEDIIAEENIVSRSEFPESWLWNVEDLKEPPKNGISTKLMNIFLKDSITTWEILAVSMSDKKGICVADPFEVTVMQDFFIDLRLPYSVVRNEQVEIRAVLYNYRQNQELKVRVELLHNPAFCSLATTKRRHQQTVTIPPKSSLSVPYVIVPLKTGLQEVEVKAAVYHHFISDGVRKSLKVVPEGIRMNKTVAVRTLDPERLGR
T6 sequence (P01024 1321-1663 limits assumed, chain 3 of 3): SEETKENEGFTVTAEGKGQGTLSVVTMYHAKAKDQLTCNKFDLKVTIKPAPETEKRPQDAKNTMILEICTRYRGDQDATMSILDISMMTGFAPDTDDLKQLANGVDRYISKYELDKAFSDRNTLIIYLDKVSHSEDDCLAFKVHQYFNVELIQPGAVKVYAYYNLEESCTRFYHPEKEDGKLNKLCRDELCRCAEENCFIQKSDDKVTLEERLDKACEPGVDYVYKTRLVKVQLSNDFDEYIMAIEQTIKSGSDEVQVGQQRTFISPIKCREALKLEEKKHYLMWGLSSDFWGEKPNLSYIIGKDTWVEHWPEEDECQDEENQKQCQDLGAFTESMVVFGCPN

[9] = molecular target: T1, Native complement component C3, …; experiment: SPR (Biacore 2000), Efb-C immobilized, native C3 as analyte, surface heterogeneity model, primary site; Kd=koff/kon
C3b [10] = molecular target: T5, C3b; experiment: SPR (Biacore 2000), Efb-C immobilized, C3b as analyte, 1:1 Langmuir model
Protocol: as §1

C3b [11] = molecular target: T5, C3b; experiment: SPR kinetics, Efb-C immobilized
Hydrolyzed C3 (C3(H2O)) [12] = molecular target: T3, Hydrolyzed C3 (C3(H2O)); experiment: SPR kinetics, Efb-C immobilized

T1 sequence (P01024 23-1663): as the sequence (P01024 23-1663) above

B1: SAV1155/Ehp (Efb Homologous Protein), recombinant mature form, S. aureus strain Mu50 (other)
chain: QTKNVEAAKKYDQYQTNFKKQVNKKVVDAQKAVNLFKRTRTVATHRKAQRAVNLIHFQHSYEKKKLQRQIDLVLKYNTLK
notes: A recombinant form corresponding to the predicted mature protein
- IC50, inhibition of classical activation of the complement pathway (ELISA detecting fixed C3b to Ag-Ab complex) [1]: 590 nM
- classical pathway inhibition relative to Efb, on a molar basis [1]: ~2 fold
- classical pathway inhibition relative to Efb-C, on a molar basis [1]: ~50 fold
- binding result [2]: no binding (tested: 1:100 dilution of human serum)

B2: Extracellular fibrinogen-binding protein (Efb), recombinant full-length, S. aureus strain Mu50 (other)
chain: ASEGYGPREKKPVSINHNIVEYNDGTFKYQSRPKFNSTPKYIKFKHDYNILEFNDGTFEYGARPQFNKPAAKTDATIKKEQKLIQAQNLVREFEKTHTVSAHRKAQKAVNLVSFEYKVKKMVLQERIDNVLKQGLVR
- IC50, inhibition of the alternative pathway of complement activation (ELISA of C3b deposition, human serum) [1]: ~560 nM
- molar excess over C3 needed to reach an IC50 concentration, classical pathway [1]: 50 fold molar excess over C3

B3: Efb-C, C-terminal C3-binding domain of Efb from S. aureus strain Mu50 (other)
chain: FNKPAAKTDATIKKEQKLIQAQNLVREFEKTHTVSAHRKAQKAVNLVSFEYKVKKMVLQERIDNVLKQGLVR
notes: Monomer in solution; also called wild-type Efb-C
- koff [3]: 9.9e-05 s⁻¹
- kon [3]: 36000 M⁻¹ s⁻¹
- Kd (Hydrolyzed C3 (C3(H2O)) [4]): 1.9 nM
- Kd [5]: 0.8 nM
- koff [6]: 0.000218 s⁻¹
- kon [6]: 284000 M⁻¹ s⁻¹
- koff (Hydrolyzed C3 (C3(H2O)) [7]): 0.000169 s⁻¹
- kon (Hydrolyzed C3 (C3(H2O)) [7]): 88900 M⁻¹ s⁻¹
- Kd (C3b [8]): 8.8 nM
- binding result (C3c): no binding (tested: 200 nM)
- IC50, inhibition of the alternative pathway of complement activation (ELISA of C3b deposition, human serum) [1]: ~410 nM
- Kd [9]: 2.8 nM
- binding result [2]: no binding (tested: 1:100 dilution of human serum)
- koff (C3b [10]): 0.000209 s⁻¹
- kon (C3b [10]): 23900 M⁻¹ s⁻¹
- fold decrease in affinity compared to native C3 and C3(H2O) (C3b [11]): ~3 fold
- fold difference in affinity to C3dg (C3b [11]): ~10 fold
- dissociation rate relative to that of native C3 (Hydrolyzed C3 (C3(H2O)) [12]): > 70 % greater
